Assay results: paper doi:10.1101/2023.09.29.560221 (bioRxiv, 2023)
Substitutions are numbered along the chain they refer to. Names may count otherwise.

Experiments:
[1] = molecular target: T1, human Topoisomerase I (human, UniProt P11387 1-765); experiment: ELISA
T1 sequence: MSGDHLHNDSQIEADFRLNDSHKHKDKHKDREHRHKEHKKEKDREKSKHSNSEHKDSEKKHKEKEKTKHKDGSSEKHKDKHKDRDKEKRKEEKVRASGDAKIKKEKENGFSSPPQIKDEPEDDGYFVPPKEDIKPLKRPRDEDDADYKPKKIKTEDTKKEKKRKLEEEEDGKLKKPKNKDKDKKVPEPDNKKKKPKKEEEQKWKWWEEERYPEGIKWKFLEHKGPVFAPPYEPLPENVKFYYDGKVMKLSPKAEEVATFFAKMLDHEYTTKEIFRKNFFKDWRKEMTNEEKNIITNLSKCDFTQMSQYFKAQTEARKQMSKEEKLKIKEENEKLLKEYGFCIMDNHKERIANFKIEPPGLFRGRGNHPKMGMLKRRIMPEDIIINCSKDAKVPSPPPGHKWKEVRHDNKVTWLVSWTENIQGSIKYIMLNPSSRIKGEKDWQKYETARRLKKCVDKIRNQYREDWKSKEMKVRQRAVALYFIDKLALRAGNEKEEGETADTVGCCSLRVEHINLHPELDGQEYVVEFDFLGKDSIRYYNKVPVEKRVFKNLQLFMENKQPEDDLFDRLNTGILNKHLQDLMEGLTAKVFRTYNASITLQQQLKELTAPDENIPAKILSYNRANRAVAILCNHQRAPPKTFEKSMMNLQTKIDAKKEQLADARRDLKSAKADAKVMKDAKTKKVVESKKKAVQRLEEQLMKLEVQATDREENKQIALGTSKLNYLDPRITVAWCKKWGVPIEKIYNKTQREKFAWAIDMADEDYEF

[2] = molecular target: the molecule itself; experiment: native gel or EMSA

B1: SV40 Large T-antigen (LT), wild type, purified from insect cells (natural protein)
chain: MDKVLNREESLQLMDLLGLERSAWGNIPLMRKAYLKKCKEFHPDKGGDEEKMKKMNTLYKKMEDGVKYAHQPDFGGFWDATEIPTYGTDEWEQWWNAFNEENLFCSEEMPSSDDEATADSQHSTPPKKKRKVEDPKDFPSELLSFLSHAVFSNRTLACFAIYTTKEKAALLYKKIMEKYSVTFISRHNSYNHNILFFLTPHRHRVSAINNYAQKLCTFSFLICKGVNKEYLMYSALTRDPFSVIEESLPGGLKEHDFNPEEAEETKQVSWKLVTEYAMETKCDDVLLLLGMYLEFQYSFEMCLKCIKKEQPSHYKYHEKHYANAAIFADSKNQKTICQQAVDTVLAKKRVDSLQLTREQMLTNRFNDLLDRMDIMFGSTGSADIEEWMAGVAWLHCLLPKMDSVVYDFLKCMVYNIPKKRYWLFKGPIDSGKTTLAAALLELCGGKALNVNLPLDRLNFELGVAIDQFLVVFEDVKGTGGESRDLPSGQGINNLDNLRDYLDGSVKVNLEKKHLNKRTQIFPPGIVTMNEYSVPKTLQARFVKQIDFRPKDYLKHCLERSEFLLEKRIIQSGIALLLMLIWYRPVAEFAQSIQSRIVEWKERLDKEFSLSVYQKMKFNVAMGIGVLDWLRNSDDDDEDSQENADKNEDGGEKNMEDSGHETGIDSQSQGSFQAPQSSQSVHDHNQPYHICRGFTCFKKPPTPPPEPET
B1: binds [1].

B2: SV40 Large T-antigen T518D (phosphomimetic mutant), purified from insect cells (natural protein)
chain: B1 chain with T518D
B2 was tested, and the binding result [1] was “binds” and the “stoichiometry N” value [2] was 6.
